From patent publication US20220411536A1 (NUMAB THERAPEUTICS, published 2022) come the findings set out here.

Test [1] deals with T1, recombinant human CD3E ECD (SinoBiological, cat. 10977-H08H) (human, UniProt P07766 23-126).
T1 construct: extracellular domain; bought protein; also called CD3s
The test can be described thus: SPR, immobilised CD3e ECD, two-state model; overall KD of the two-state fit. (In general: Surface plasmon resonance follows binding to a sensor surface in real time, without labels.)

Test [2] addresses T2, human PD-L1 expressed on cells (CHO-PD-L1, HCC1954, HCC827) (human, UniProt Q9NZQ7 19-290).
T2 construct: whole, on cells; also called hPD-L1; PD-L1 expressing cells
The test can be described thus: flow cytometry, inhibition of biotinylated PD-1 binding to HCC1954 cells. For orientation: A flow cytometer gives signals particle by particle.

The target of test [3] is T3, mouse serum albumin (mouse, UniProt P07724 25-608).
T3 construct: also called MSA; mouse SA
T3 sequence (P07724 25-608 limits assumed): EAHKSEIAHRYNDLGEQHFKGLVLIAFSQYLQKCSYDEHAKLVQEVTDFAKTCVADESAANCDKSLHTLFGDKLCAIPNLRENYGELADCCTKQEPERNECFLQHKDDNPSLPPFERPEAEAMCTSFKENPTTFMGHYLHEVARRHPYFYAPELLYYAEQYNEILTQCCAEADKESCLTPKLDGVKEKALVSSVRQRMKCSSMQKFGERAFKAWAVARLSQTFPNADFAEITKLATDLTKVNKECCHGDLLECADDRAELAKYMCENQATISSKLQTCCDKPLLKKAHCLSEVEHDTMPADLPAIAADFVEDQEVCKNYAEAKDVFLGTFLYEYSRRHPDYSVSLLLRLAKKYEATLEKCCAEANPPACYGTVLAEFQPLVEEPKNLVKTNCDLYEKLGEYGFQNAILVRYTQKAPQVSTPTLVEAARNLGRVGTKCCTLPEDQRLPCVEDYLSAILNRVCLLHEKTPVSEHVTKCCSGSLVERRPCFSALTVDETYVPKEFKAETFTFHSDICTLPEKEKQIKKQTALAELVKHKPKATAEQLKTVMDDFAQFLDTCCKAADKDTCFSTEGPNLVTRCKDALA
The test can be described thus: SPR, immobilised MSA, pH 5.5.

Test [4] has as its target T1, recombinant human CD3E ECD …. The test can be described thus: SPR, immobilised CD3e ECD, two-state model (kd1); kd1, first step of the two-state fit.
Test [5] has the same target. Briefly: SPR, immobilised CD3e ECD, two-state model (ka1); ka1, first step of the two-state fit.
Test [6] deals with T4, human serum albumin (human, UniProt P02768 25-609).
T4 construct: also called HSA; human SA
Briefly: SPR, immobilised HSA, pH 5.5.

Test [7] has as its target T5, CD3e on Jurkat PD-1 NFAT reporter T cells or on T cells of human PBMCs (human, UniProt P07766 23-207). The test can be described thus: cell-based or functional assay.
Test [8] concerns the target T1, recombinant human CD3E ECD …. Briefly: SPR, immobilised CD3e ECD, two-state model.
For test [9], the target named is T6, Fc-tagged human PD-L1 extracellular domain (SinoBiological, cat. 10084-H02H) (human, UniProt Q9NZQ7 19-238).
T6 construct: extracellular domain; also called hPD-L1; not shown: Fc tag of the bought protein
Briefly: SPR, captured Fc-PD-L1 ECD, steady state.

In test [10] the target is T7, recombinant human IL-23R (custom-made by Trenzyme) (human, UniProt Q5VWK5 24-355).
T7 sequence (looked up): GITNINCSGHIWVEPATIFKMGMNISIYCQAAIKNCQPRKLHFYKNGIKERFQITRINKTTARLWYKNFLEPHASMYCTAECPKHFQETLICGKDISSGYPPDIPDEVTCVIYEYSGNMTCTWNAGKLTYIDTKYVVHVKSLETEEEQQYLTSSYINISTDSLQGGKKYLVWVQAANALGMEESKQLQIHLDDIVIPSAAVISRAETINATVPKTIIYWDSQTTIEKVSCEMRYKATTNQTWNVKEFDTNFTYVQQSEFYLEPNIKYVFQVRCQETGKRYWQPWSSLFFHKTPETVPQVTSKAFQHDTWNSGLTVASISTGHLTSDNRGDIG
Briefly: SPR, immobilised IL-23R.

Test [11] addresses T6, Fc-tagged human PD-L1 extracellular …. The test can be described thus: SPR, captured Fc-PD-L1 ECD, kinetic.
In test [12] the target is T2, human PD-L1 expressed on cells …. Briefly: flow cytometry, inhibition of biotinylated PD-1 binding to HCC827 cells.
Test [13] has as its target T8, recombinant human Her2 ECD (SinoBiological, cat. 10004-HCCH) (human, UniProt P04626 23-652).
T8 construct: extracellular domain; bought protein
Briefly: SPR, immobilised Her2 ECD.

The target of test [14] is T2, human PD-L1 expressed on cells …. Briefly: cell-based or functional assay.
For test [15] the target is unchanged. The test can be described thus: flow cytometry, CHO-PD-L1 cells.
Test [16] has as its target T6, Fc-tagged human PD-L1 extracellular …. Briefly: SPR, captured Fc-PD-L1 ECD, scFv analyte, kinetic.
Test [17] shares this target. The test can be described thus: SPR, alanine mutants of 33-03-G02.
The target in test [18] is T5, CD3e on Jurkat PD-1 NFAT reporter T …. The test can be described thus: cell-based or functional assay. The source holds these as a separate data set.

T1 sequence (P07766 23-126): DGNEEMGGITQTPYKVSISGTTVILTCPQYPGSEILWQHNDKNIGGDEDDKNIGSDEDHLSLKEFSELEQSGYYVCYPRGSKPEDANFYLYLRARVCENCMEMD

B1: PRO1546 (multispecific antibody)
chain 1: DIQMTQSPSSLSASVGDRVTITCQASENIYSFLAWYQQKPGKAPKLLIYSASKLAAGVPSRFSGSGSGTDFTLTISSLQPEDFATYYCQQTNRYSNPDIYNVFGTGTKVTVLGGGGGSGGGGSGGGGSGGGGSEVQLVESGGGLVQPGGSLRLSCAASGIDFNSNYYMCWVRQAPGKGLEWIGCIYVGSHVNTYYANWAKGRFTISRDNSKNTVYLQMNSLRAEDTAVYYCATSGSSVLYFKFWGQGTLVTVSSGGGGSGGGGSDVVMTQSPSSLSASVGDRVTITCQASQIISSRSAWYQQKPGQPPKLLIYQASKLASGVPSRFSGSGSGTDFTLTISSLQPEDFATYYCQCTYIDSNFGAFGCGTKLTVLGGGSGGSDIQMTQSPSSLSASVGDRVTITCQSSQSVFSNNYLAWFQQKPGQSPKRLIYSASTLASGVPSRFSGSGSGTDFTLTISSLQPEDFATYYCLGSYACSSADCYVFGTGTKVTVLG
chain 2: DIQMTQSPSSLSASVGDRVTITCQASQSINDYLAWYQQKPGKAPKLLIYKASTLASGVPSRFSGSGSGTDFTLTISSLQPEDFATYYCQAAYIITDIDNVFGTGTKVTVLGGGGGSGGGGSGGGGSGGGGSQVQLQESGPGLVKPSETLSLTCKVSGFSFSSGYDMCWIRQPPGKGLEWIGCVVAGSVDITYYASWAKGRVTISVDSSKNQFSLKLSSVTAADTAVYYCARKDAYSDAFNLWGQGTLVTVSSGGGGSGGGGSEVQLVESGGGLVQPGGSLRLSCAASGFSLSSYDMSWVRQAPGKGLAWIGASYASGPTYYASWAKGRFTISRDNSKNTVYLQMNSLRAEDTATYFCARGGWTGTSHSNIWGQGTLVTVSSGGGSGGGSEVQLVESGGGLVQPGGSLRLSCAASGFSFSSSYWICWVRQAPGKCLEWVGCVFTGDGTTYYASWAKGRFTISRDNSKNTVYLQMNSLRAEDTATYFCARPVSVYYYGMDLWGQGTLVTVSS
Take B1: the dissociation constant Kd – broadly, the equilibrium constant for the complex coming apart – stood at 18.3 nM in test [1]; 17.3 nM in [3]; 0.797 nM in [6]; 380 nM in [9]; 0.848 nM in [10]; 14.3 nM in test [11]. Moreover, the IC50 (as a rule, the midpoint of a concentration-inhibition curve) in test [2] was determined as 51.9 µg/mL; in test [12], 254 µg/mL. In addition, the koff (as a rule, the first-order rate constant of dissociation) in [3] was determined as 0.00116 s⁻¹; in test [4], 0.00752 s⁻¹; in test [6], 0.000134 s⁻¹; in test [10], 0.000388 s⁻¹; in test [11], 0.000345 s⁻¹. Further, the kon (commonly a measure of how fast the partners come together) in [3] worked out at 67000 M⁻¹ s⁻¹; in test [5], 197000 M⁻¹ s⁻¹; in test [6] it was 168000 M⁻¹ s⁻¹; in test [10], 458000 M⁻¹ s⁻¹; in test [11] it was 24100 M⁻¹ s⁻¹. Besides, in [7], the “IC50, NFAT reporter, CHO-PD-L1 (A2 clone) cells” value is 31.5 nM. For the same molecule, in [7], the “IC50, NFAT reporter, HCC1954 cells” value amounted to 95.4 nM. For the same molecule, the “rel. max. activation vs PRO1497, NFAT reporter, HCC1954 cells” value in [7] came to 28%. Further, in [7], the “rel. max. activation vs PRO1497 on HCC1954, NFAT reporter, CHO-PD-L1 (A2 clone) cells” value stood at 60%. For the same molecule, in test [8], the KD1 was found to be 38.2 nM. Further, the kd2 in [8] stood at 0.00533 s⁻¹. Moreover, in test [13], the binding result was “no binding (tested: 90 nM highest concentration)”.

B2: PRO830 (scFv, V domains shown)
VH: QVQLQESGPGLVKPSETLSLTCKVSGFSFSSGYDMCWIRQPPGKGLEWIGCVVAGSVDITYYASWAKGRVTISVDSSKNQFSLKLSSVTAADTAVYYCARKDAYSDAFNLWGQGTLVTVSS
VL: DIQMTQSPSSLSASVGDRVTITCQASQSINDYLAWYQQKPGKAPKLLIYKASTLASGVPSRFSGSGSGTDFTLTISSLQPEDFATYYCQQGYIITDIDNVFGTGTKVTVLG
notes: also called 33-03-G02; parental scFv
On to B2, for which the “IC50, neutralization of PD-L1 in NF-AT potency assay” value (from here on “IC50, neutralization of PD-L1”) in [14] was 0.0204 µg/mL. Moreover, the EC50 (usually the concentration at which the effect is half-maximal) in test [15] came to 0.0055 µg/mL. In [16], this molecule yielded a dissociation constant (Kd) of 0.0781 nM, a koff of 0.000139 s⁻¹ and an association rate constant (kon) of 1.78e+06 M⁻¹ s⁻¹.

B3: PRO1075 (scFv, V domains shown)
VH: QVQLQESGPGLVKPSETLSLTCKVSGFSFSSGYDMCWIRQPPGKGLEWIGCVVAGSVDITYYASWAKGRVTISVDSSKNQFSLKLSSVTAADTAVYYCARKDAYSDAFNLWGQGTLVTVSS
VL: DIQMTQSPSSLSASVGDRVTITCQASQSINDYLAWYQQKPGKAPKLLIYKASTLASGVPSRFSGSGSGTDFTLTISSLQPEDFATYYCQAGYIITDIDNVFGTGTKVTVLG
notes: also called 33-03-G02 VL-Q108A
As for B3, the “IC50, neutralization of PD-L1” value in test [14] amounted to 0.828 µg/mL. Moreover, in test [15], the EC50 worked out at 333 µg/mL. Further, the “fold reduction of affinity vs the original domain” value in test [17] is over 100 fold. For the same molecule, in test [16], the Kd turned out to be 12.2 nM, the koff came to 0.0205 s⁻¹ and the association rate constant (kon) is 1.67e+06 M⁻¹ s⁻¹.

B4: PRO1089 (scFv, V domains shown)
VH: QVQLQESGPGLVKPSETLSLTCKVSGFSFSSGYDMCWIRQPPGKGLEWIGCVVAGSVDITYYASWAKGRVTISVDSSKNQFSLKLSSVTAADTAVYYCARKDAASDAFNLWGQGTLVTVSS
VL: DIQMTQSPSSLSASVGDRVTITCQASQSINDYLAWYQQKPGKAPKLLIYKASTLASGVPSRFSGSGSGTDFTLTISSLQPEDFATYYCQQGYIITDIDNVFGTGTKVTVLG
notes: also called 33-03-G02 VH-Y112A
Take B4: the “IC50, neutralization of PD-L1” value in [14] amounted to 1.28 µg/mL. The molecule further returned a concentration for a half-maximal effect (EC50) in test [15] of 51.2 µg/mL. Also, in test [17], the “fold reduction of affinity vs the original domain” value was over 100 fold. For the same molecule, in test [16], binding was put at a Kd of 16.5 nM, the koff amounted to 0.0328 s⁻¹ and the on-rate (kon) was determined as 1.99e+06 M⁻¹ s⁻¹.

B5: PRO1455 (multispecific antibody)
chain 1: DIQMTQSPSSLSASVGDRVTITCQASENIYSFLAWYQQKPGKAPKLLIYSASKLAAGVPSRFSGSGSGTDFTLTISSLQPEDFATYYCQQTNRYSNPDIYNVFGTGTKVTVLGTVAAPSVFIFPPSDEQLKSGTASVVCLLNNFYPREAKVQWKVDNALQSGNSQESVTEQDSKDSTYSLSSTLTLSKADYEKHKVYACEVTHQGLSSPVTKSFNRGECGGGGSGGGGSDIQMTQSPSSLSASVGDRVTITCQSSQSVFSNNYLAWFQQKPGQSPKRLIYSASTLASGVPSRFSGSGSGTDFTLTISSLQPEDFATYYCLGSYACSSADCYVFGTGTKVTVLGGGGGSGGGGSGGGGSGGGGSEVQLVESGGGLVQPGGSLRLSCAASGFSLSSYDMSWVRQAPGKGLAWIGASYASGPTYYASWAKGRFTISRDNSKNTVYLQMNSLRAEDTATYFCARGGWTGTSHSNIWGQGTLVTVSS
chain 2: EVQLVESGGGLVQPGGSLRLSCAASGIDFNSNYYMCWVRQAPGKGLEWIGCIYVGSHVNTYYANWAKGRFTISRDNSKNTVYLQMNSLRAEDTAVYYCATSGSSVLYFKFWGQGTLVTVSSASTKGPSVFPLAPSSKSTSGGTAALGCLVKDYFPEPVTVSWNSGALTSGVHTFPAVLQSSGLYSLSSVVTVPSSSLGTQTYICNVNHKPSNTKVDKKVEPKSCGGGGSGGGGSDIQMTQSPSSLSASVGDRVTITCQASQSINDYLAWYQQKPGKAPKLLIYKASTLASGVPSRFSGSGSGTDFTLTISSLQPEDFATYYCQQAYIITDIDNVFGTGTKVTVLGGGGGSGGGGSGGGGSGGGGSQVQLQESGPGLVKPSETLSLTCKVSGFSFSSGYDMCWIRQPPGKGLEWIGCVVAGSVDITYYASWAKGRVTISVDSSKNQFSLKLSSVTAADTAVYYCARKDAYSDAFNLWGQGTLVTVSS
Regarding B5, the IC50 was found to be 2.85 µg/mL in test [2] and 2.8 µg/mL in test [12]. Also, the “IC50, NFAT reporter, HCC1954 cells” value in test [7] was 4.07 nM. Further, the “fold weaker activation than PRO1454, NFAT reporter, HCC1954 cells” value in [18] amounted to 27 fold.
